In patent US20170210813A1 (Regeneron, published 2017):

T1: human PDGFRb.mFc (human)
T1 construct: Soluble dimeric construct with mouse Fc; also called hPDGFRb.mFc; soluble human PDGFR-beta.mFc
T1 chain: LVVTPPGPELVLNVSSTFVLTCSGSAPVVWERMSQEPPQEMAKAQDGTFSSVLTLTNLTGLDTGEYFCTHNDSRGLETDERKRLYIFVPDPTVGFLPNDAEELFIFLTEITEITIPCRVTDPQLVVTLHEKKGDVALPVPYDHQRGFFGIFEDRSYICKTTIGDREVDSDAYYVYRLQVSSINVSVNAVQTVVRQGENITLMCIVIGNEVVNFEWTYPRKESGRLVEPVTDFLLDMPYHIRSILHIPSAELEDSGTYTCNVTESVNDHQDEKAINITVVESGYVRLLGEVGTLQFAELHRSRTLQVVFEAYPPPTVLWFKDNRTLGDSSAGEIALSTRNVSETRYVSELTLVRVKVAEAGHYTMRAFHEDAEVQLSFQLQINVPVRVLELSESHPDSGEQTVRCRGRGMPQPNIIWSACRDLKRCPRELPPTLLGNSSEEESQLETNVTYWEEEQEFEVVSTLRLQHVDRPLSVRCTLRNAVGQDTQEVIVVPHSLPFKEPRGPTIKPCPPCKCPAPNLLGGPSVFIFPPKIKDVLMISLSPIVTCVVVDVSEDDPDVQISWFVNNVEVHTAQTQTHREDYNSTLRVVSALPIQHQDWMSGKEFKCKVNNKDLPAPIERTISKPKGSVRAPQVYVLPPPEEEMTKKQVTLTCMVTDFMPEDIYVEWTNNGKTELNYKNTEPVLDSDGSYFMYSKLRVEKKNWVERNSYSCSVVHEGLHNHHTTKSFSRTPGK

T2: Macaca fascicularis PDGFRb.mmh (Macaca fascicularis)
T2 construct: Soluble monomeric construct; also called mfPDGFRb.mmh
T2 chain: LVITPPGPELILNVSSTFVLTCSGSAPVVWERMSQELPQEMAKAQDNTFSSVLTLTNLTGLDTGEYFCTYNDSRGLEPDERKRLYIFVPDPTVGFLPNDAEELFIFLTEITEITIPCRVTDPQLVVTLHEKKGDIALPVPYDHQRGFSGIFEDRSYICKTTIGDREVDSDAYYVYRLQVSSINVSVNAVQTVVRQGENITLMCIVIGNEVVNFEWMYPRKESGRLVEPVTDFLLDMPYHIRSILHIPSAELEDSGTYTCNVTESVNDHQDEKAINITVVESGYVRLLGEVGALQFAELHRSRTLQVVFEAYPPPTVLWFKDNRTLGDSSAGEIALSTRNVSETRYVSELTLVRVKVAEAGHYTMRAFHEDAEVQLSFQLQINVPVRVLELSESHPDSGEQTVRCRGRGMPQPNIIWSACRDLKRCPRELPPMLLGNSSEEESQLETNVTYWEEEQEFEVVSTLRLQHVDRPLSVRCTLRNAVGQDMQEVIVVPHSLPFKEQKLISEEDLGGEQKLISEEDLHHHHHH


Key:
[1] = target: full length human PDGFR-beta on HEK293 cells (human, UniProt P09619 33-1106); test: cell-based or functional assay
human PDGFRb.mFc = target: T1, human PDGFRb.mFc; test: SPR, mAb captured, 25 C
Description: (§1) Antibodies, expressed as either mouse Fc (prefix H1M; H2M) or human Fc (prefix H4H), were captured on their respective anti-Fc sensor surfaces (Mab capture format). […] Kinetic association (kₐ) and dissociation (kd) rate constants were determined by processing and fitting the data to a 1:1 binding model using Scrubber 2.0 curve fitting software.

hPDGFRb.mmh [2] = target: T3, hPDGFRb.mmh (human, UniProt P09619 33-531); test: SPR, mAb captured, 25 C
T3 construct: Soluble monomeric construct; also called soluble human PDGFR-beta.mmh
Description: as §1

[3] = target: T2, Macaca fascicularis PDGFRb.mmh; test: SPR, mAb captured, 25 C
Description: as §1

hPDGFRb.mmh [4] = target: T3, hPDGFRb.mmh; test: SPR, mAb captured, 37 C
Description: as §1

hPDGFRb.mmh [5] = target: T3, hPDGFRb.mmh; test: blocking ELISA, biot-hPDGFRb.mmh to coated PDGF-BB
Description: The equilibrated PDGFR-beta/antibody solutions were added to ligand-coated plates, allowed to incubate for 1 hr, and washed. Levels of bound biot-hPDGFR-beta.mmh were detected using HRP conjugated streptavidin. Data were analyzed using Prism software and IC₅₀ values were calculated as the amount of antibody required to achieve 50% reduction of hPDGFR-beta-mmh bound to ligand. Maximum blocking values were also calculated and reflect the ability of the antibody to block relative to baseline. The absorbance measured at the constant amount of 250 pM biot-hPDGFR-beta-mmh on the dose curve is defined as 0% blocking and the absorbance with no added PDGFR-beta is defined as 100%. The absorbance of the wells containing the highest antibody concentration determined the maximum blocking percent.

human PDGFRb.hFc [6] = target: T4, human PDGFRb.hFc (human); test: SPR, mAb captured, 25 C
T4 construct: Soluble dimeric construct with human Fc; also called hPDGFRb.hFc
Description: as §1

human PDGFRb.hFc [7] = target: T4, human PDGFRb.hFc; test: SPR, mAb captured, 37 C
Description: as §1

[8] = target: T2, Macaca fascicularis PDGFRb.mmh; test: SPR, mAb captured, 37 C
Description: as §1

Binder	IC50, blocking PDGF-BB (250 pM) activation, SRE-luciferase [1] [M]	IC50, blocking PDGF-DD (400 pM) activation, SRE-luciferase [1] [M]	Kd (human PDGFRb.mFc) [nM]	koff (human PDGFRb.mFc) [s⁻¹]	kon (human PDGFRb.mFc) [M⁻¹ s⁻¹]	t1/2 (human PDGFRb.mFc) [h]	Kd (hPDGFRb.mmh [2]) [nM]	koff (hPDGFRb.mmh [2]) [s⁻¹]	kon (hPDGFRb.mmh [2]) [M⁻¹ s⁻¹]	t1/2 (hPDGFRb.mmh [2]) [h]	Kd [3] [nM]	koff [3] [s⁻¹]	kon [3] [M⁻¹ s⁻¹]	t1/2 [3] [h]	Kd (hPDGFRb.mmh [4]) [nM]	koff (hPDGFRb.mmh [4]) [s⁻¹]	kon (hPDGFRb.mmh [4]) [M⁻¹ s⁻¹]	t1/2 (hPDGFRb.mmh [4]) [h]	% Maximum Blocking (hPDGFRb.mmh [5]) [%]	IC50 (hPDGFRb.mmh [5]) [nM]	also measured
H2M3363N (antibody, V domains shown, mouse Fc (H2M prefix; isotype not spelled out)) VH: QVQVQESGPGLVKPSETLSLTCTVSGDSISSSSYYWGWIRQPPGKGLEWIGSIYYNGISSYNPSLKSRVTISVESSKNQFSLRLASVTAADTALYYCARHRAARRFSEAFDIWGQGTMVTVSS VL: not shown	7.5e-09	1.9e-10	0.0386	4.03e-06	104000	47.8	46.8	0.00333	71100	0.05	1.4	6.85e-05	50000	2.82	17.6	0.00503	286000	0.0333	77	4.1	–
H1M3310N (antibody, mouse IgG1, V domains shown, mouse IgG1 Fc (H1M prefix)) VH: EVQLLESGGDLVQPGGSLRLSCAASGITFSSFAMSWVRQAPGKGLEWVSTVSVSAGITYYADSVKGRFTISRDNSKNTLYLQMNSLRAEDTAIYYCAKSSCTTNSCPAYFDYWGLGTLVTVSS VL: not shown	2.3e-08	2.8e-10	≤ 0.0789	≤ 1e-06	12700	192	≤ 0.07	≤ 1e-06	14000	192	≤ 0.1	1e-06	–	192	1.83	6.46e-05	35300	2.98	88	0.12	–
H1M3361N (antibody, mouse IgG1, V domains shown, mouse IgG1 Fc (H1M prefix)) VH: EVQLVESGGGLVQPGGSLRLSCAASGFTFSSYWMTWVRQAPGKGLEWVANIRQDGSDKYYVDSVKGRFTISRDNAKNSLFLQMNSLRAEDTAVYYCARTNGGTYGYNHYYYGMDVWGQGTTVTVSS VL: DIQMTQSPSSLSASVGDRVTITCRASQGIRNDLGWYQLKPGKAPKRLIFAASSLQSGVPSRFSGSGSGTEFTLTISSLQPEDFATYYCLQHNSYPWTFGQGTKVEIK	6.8e-09	8.4e-11	≤ 0.0765	≤ 1e-06	13100	192	7.29	0.00126	173000	0.15	3.9	3.89e-05	10000	4.95	27.4	0.00833	304000	0.0233	76	0.1	–
H1M3299N (antibody, mouse IgG1, V domains shown, mouse IgG1 Fc (H1M prefix)) VH: QVQLVESGGGVVQPGRSLRLSCAASGFTFSSYGLHWVRQAPGKGLEWVALISNVGSNKYYADSVKGRFTISRDNSKNSLFLQMNSLRAEDTAVYYCAKGADYYYYGMDVWGQGTTVTVSS VL: not shown	5.6e-10	4.2e-10	6.35	0.000165	25900	1.17	43.5	0.00092	21100	0.217	–	–	–	–	68.6	0.00217	31600	0.0833	67	7.6	binding result [3]: no binding
H1M3305N (antibody, mouse IgG1, V domains shown, human variable domains with mouse constant domains, mouse IgG1 Fc (H1M prefix)) VH: QLQLQESGPGLVKPSETLSLTCIVSGGSISSSSYYWGWIRQPPGKGLEWIGSLYYSGITFYNPSLKSRVTISVDTSKNQFSLTLTSVTAADTAVFYCARHRVMASSPFDHWGQGTLVTVSS VL: not shown	8.5e-09	1.9e-10	≤ 0.00617	≤ 1e-06	162000	192	0.808	2.52e-05	31200	7.63	0.816	4.16e-05	51000	4.63	0.88	0.000102	116000	1.88	83	0.085	–

The next lines start with results.

IC50, blocking PDGF-BB (250 pM) activation, SRE-luciferase [1] [M]	IC50, blocking PDGF-DD (400 pM) activation, SRE-luciferase [1] [M]	Kd (human PDGFRb.mFc) [nM]	koff (human PDGFRb.mFc) [s⁻¹]	kon (human PDGFRb.mFc) [M⁻¹ s⁻¹]	t1/2 (human PDGFRb.mFc) [h]	Kd (hPDGFRb.mmh [2]) [nM]	koff (hPDGFRb.mmh [2]) [s⁻¹]	kon (hPDGFRb.mmh [2]) [M⁻¹ s⁻¹]	t1/2 (hPDGFRb.mmh [2]) [h]	Kd [3] [nM]	koff [3] [s⁻¹]	kon [3] [M⁻¹ s⁻¹]	t1/2 [3] [h]	Kd (hPDGFRb.mmh [4]) [nM]	koff (hPDGFRb.mmh [4]) [s⁻¹]	kon (hPDGFRb.mmh [4]) [M⁻¹ s⁻¹]	t1/2 (hPDGFRb.mmh [4]) [h]	% Maximum Blocking (hPDGFRb.mmh [5]) [%]	IC50 (hPDGFRb.mmh [5]) [nM]	Binder	also measured
6.1e-10	8.2e-10	–	–	–	–	4.78	0.00136	285000	0.133	8.5	0.00175	207000	0.117	13.8	0.00624	452000	0.0333	82	1.4	H4H3095S (antibody, human IgG4, V domains shown, human IgG4 Fc (H4H prefix)) VH: EVQLVESGGGLVQPGGSLRLSCGASGFTFSSYWMTWVRQAPGKGLEWVGNINQDGSEKYSVDSVKGRFTISRDNAKNSLYLQMNRVRAEDTAVYYCSRDLVPPRQGDNYYYFGMDVWGLGTTVTVSS VL: DIQMTQSPSTLSASVGDRVIITCRASQNINNWLAWYQQQPGKAPKLLIYEASSLESGVPSRFSGSGSGTEFTLTIGSLQPDDFATYYCQHYNSYSRTFGQGTKVDIK	Kd (human PDGFRb.hFc [6]): 0.72 nM; koff (human PDGFRb.hFc [6]): 0.000232 s⁻¹; kon (human PDGFRb.hFc [6]): 321000 M⁻¹ s⁻¹; t1/2 (human PDGFRb.hFc [6]): 0.833 h; Kd (human PDGFRb.hFc [7]): 1.67 nM; koff (human PDGFRb.hFc [7]): 0.00071 s⁻¹; kon (human PDGFRb.hFc [7]): 425000 M⁻¹ s⁻¹; t1/2 (human PDGFRb.hFc [7]): 0.267 h; Kd [8]: 33.3 nM; koff [8]: 0.00797 s⁻¹; kon [8]: 239000 M⁻¹ s⁻¹; t1/2 [8]: 1.5 min
7.9e-09	1.1e-10	0.34	8.01e-05	236000	2.4	2.79	0.000127	45400	1.52	3.4	0.000206	60000	0.933	4.79	0.000551	115000	0.35	82	0.09	H2M3365N (antibody, V domains shown, mouse Fc (H2M prefix; isotype not spelled out)) VH: EVQLVESGGGLVQPGRSLRLSCAASGFTFDDFAMHWVRQVPGKGLEWVSGISWSSGTIGYVGSVKGRFTISRDNAKNSLYLQMNSLRAEDTAMYFCTKDKAAFHDAFDIWGQGTMVTVSS VL: not shown	–
